Laboratory results as given in PMC12463286.
Substitutions are numbered along the chain they refer to.

Tests used:
Experiment in all cases: EMSA
Conditions in all cases: pH 7.5, 30 min at 37 C
[1] = target: T1, FadR (Streptococcus suis serotype 2 strain ZY05719) (UniProt A0A0H3MZ02)
T1 sequence: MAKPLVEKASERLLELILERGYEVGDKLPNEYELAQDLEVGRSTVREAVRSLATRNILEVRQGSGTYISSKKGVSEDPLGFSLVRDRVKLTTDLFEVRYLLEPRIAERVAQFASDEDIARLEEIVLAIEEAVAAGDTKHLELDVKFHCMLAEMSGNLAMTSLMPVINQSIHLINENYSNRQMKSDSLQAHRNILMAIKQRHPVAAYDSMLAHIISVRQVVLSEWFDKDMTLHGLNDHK

[2] = target: T2, FadR-T230A T230A (Streptococcus suis serotype 2 strain ZY05719) (UniProt A0A0H3MZ02)
T2 sequence: T1 sequence with T230A

[3] = target: T3, FadR-T230E T230E (Streptococcus suis serotype 2 strain ZY05719) (UniProt A0A0H3MZ02)
T3 sequence: T1 sequence with T230E

Measured: binding

CTGTCCTCCTTGTAGATTTATACATGATGGGAAACGAGGAGGACCGTACGCTTTCCTGCCTCTCATTTCCTCTTTACATCCATAGTTTAACAGAGCAAAAAAACAAAAACTTGAAAACGCTCACATTTATTTTGAGAAATTCTTCACATTTTTAACCTTATTTATAAATAATTATCGATTATATCATCTAAATTCTGCATAATTCTTTCCGTTATATCATTATATGAATTTTTATTTTTTTATAAAAAACAGAAACTTCAATGAGTTTCTGTCAAATTTTCTAAGAAATAATCAATATCT (double strand) [adi promoter]
binds: all assays above
